Read-outs that look alike come from different tables or passages of the source.
B1: HPV31.E1.272 (peptide)
peptide: KLLEKLLCI
modifications: not checked
B2: HPV18.E2.211 (peptide)
peptide: TVSATQLVK
modifications: not checked
B3: HPV16.E4.9 (peptide)
peptide: AATKYPLLK
modifications: not checked
B4: HPV18.E2.168 (peptide)
peptide: GYNTFYIEF
modifications: not checked
B5: HPV45.E1.411 (peptide)
peptide: RQMNMSQWIK
modifications: not checked
B6: HPV16.E1.483 (peptide)
peptide: KSLFGMSLMK
modifications: not checked
B7: HPV45.E6.84 (peptide)
peptide: SVYGETLEK
modifications: not checked
B8: HPV16.E6.49 (peptide)
peptide: VYDFAFRDLCI
modifications: not checked
B9: HPV31.E6.90 (peptide)
peptide: KLTNKGICDL
modifications: not checked
B10: HPV18.E2.61 (peptide)
peptide: QVVPAYNISK
modifications: not checked
B11: HPV18.E5.14 (peptide)
peptide: MYVCCHVPL
modifications: not checked
B12: HPV18.E1.266 (peptide)
peptide: ILYAHIQCL
modifications: not checked
B13: HPV18.E1.210 (peptide)
peptide: KQGAMLAVFK
modifications: not checked
B14: HPV16.E1.292 (peptide)
peptide: KLLSKLLCV
modifications: not checked
B15: HPV31.E2.291 (peptide)
peptide: ATTPIIHLK
modifications: not checked
B16: HPV45.E2.144 (peptide)
peptide: YYITETGIW
modifications: not checked
B17: HPV31.E6.83 (peptide)
peptide: VYGTTLEKL
modifications: not checked
B18: HPV16.E1.214 (peptide)
peptide: LYGVSFSEL
modifications: not checked
B19: HPV18.E6.24 (peptide)
peptide: SLQDIEITCV
modifications: not checked
B20: HPV18.E2.230 (peptide)
peptide: STVSVGTAK
modifications: not checked
B21: HPV18.E7.6 (peptide)
peptide: ATLQDIVLH
modifications: not checked

What was measured:
Assay in all cases: 125I-probe competition, purified HLA
[1] = molecular target: HLA A0202 (human)
[2] = molecular target: HLA A0206 (human)
[3] = molecular target: HLA A0201 (human)
[4] = molecular target: HLA A0203 (human)
[5] = molecular target: HLA A3101 (human)
[6] = molecular target: HLA A0301 (human)
[7] = molecular target: HLA A6801 (human)
[8] = molecular target: HLA A1101 (human)
[9] = molecular target: HLA A2902 (human)
[10] = molecular target: HLA A3002 (human)
[11] = molecular target: HLA A2302 (human)
[12] = molecular target: HLA A2402 (human)
[13] = remark: other sources report otherwise

Binder	IC50 [5]	IC50 [6]	IC50 [7]	IC50 [8]	further results
B1					IC50 [1]: 21 nM; IC50 [2]: 51 nM; IC50 [3]: 19 nM; IC50 [4]: 2.4 nM
B2	6140 nM	7 nM	31 nM	4 nM	
B3		59 nM		20 nM	
B4					IC50 [9]: 835 nM; IC50 [10]: 1260 nM; IC50 [11]: 13 nM
B5	45 nM	15 nM	2560 nM	11 nM	
B6	230 nM	3.9 nM	887 nM	2 nM	
B7	6510 nM	21 nM	7.2 nM	9.5 nM	
B8					IC50 [12]: 22 nM; IC50 [11]: 8.9 nM
B9					IC50 [1]: 440 nM; IC50 [2]: 484 nM; IC50 [3]: 205 nM; IC50 [4]: 585 nM
B10	6660 nM	308 nM	8 nM	14 nM	
B11					IC50 [12]: 15 nM; IC50 [10]: 4720 nM; IC50 [11]: 24 nM
B12					IC50 [1, 13]: 8.5 nM; IC50 [2, 13]: 236 nM; IC50 [3, 13]: 33 nM; IC50 [4, 13]: 10.2 nM
B13	519 nM	35 nM	235 nM	11 nM	
B14					IC50 [1]: 67.7 nM; IC50 [2]: 125 nM; IC50 [3]: 31 nM; IC50 [4]: 23 nM
B15	34 nM	10 nM	2.5 nM	1.2 nM	
B16					IC50 [12]: 8.5 nM; IC50 [11]: 2 nM
B17					IC50 [12]: 26 nM; IC50 [10]: 1240 nM; IC50 [11]: 8.2 nM
B18					IC50 [12]: 3.1 nM; IC50 [11]: 7.2 nM
B19					IC50 [1]: 25 nM; IC50 [2]: 205 nM; IC50 [3]: 153 nM; IC50 [4]: 38 nM
B20	1760 nM	34 nM	10 nM	6 nM	
B21	543 nM	211 nM		11 nM	
